Measurements published in US8889408B2, “Factor taking part in transcription control” (Sony Corporation, priority 2002, dated 2014).

What was measured:
Format in all cases: binding
Skip = target: T1, Skip (Homo sapiens, UniProt Q13573); assay: Yeast two-hybrid analysis (β-galactosidase) of HDART-Skip interaction; set-up: expressed in transfected cells; host or cells: Saccharomyces cerevisiae Y190; conditions: Gal4DBD-HDART and deletion mutants with Gal4AD-Skip; β-galactosidase activity
T1 sequence (Q13573 1-536): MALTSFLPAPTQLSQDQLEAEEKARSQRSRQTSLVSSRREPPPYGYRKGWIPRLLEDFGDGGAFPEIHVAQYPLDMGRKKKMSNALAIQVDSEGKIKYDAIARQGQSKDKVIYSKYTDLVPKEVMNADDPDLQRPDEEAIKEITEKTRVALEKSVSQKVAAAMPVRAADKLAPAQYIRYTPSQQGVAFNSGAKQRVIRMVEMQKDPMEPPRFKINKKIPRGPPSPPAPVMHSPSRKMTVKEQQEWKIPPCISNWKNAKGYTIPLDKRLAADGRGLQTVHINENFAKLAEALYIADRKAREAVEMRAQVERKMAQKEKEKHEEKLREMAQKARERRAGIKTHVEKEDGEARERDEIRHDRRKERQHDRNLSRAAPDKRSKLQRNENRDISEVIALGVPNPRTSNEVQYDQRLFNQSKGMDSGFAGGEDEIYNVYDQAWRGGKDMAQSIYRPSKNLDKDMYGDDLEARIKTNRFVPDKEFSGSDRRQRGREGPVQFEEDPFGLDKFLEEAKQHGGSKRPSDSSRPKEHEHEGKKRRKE
Description: In order to isolate a protein that binds to this HDART, a yeast two-hybrid system was used. More particularly, a yeast MATCHMAKER two-hybrid analysis kit (Clontech) was used for the isolation. The ORF full length of HDART was inserted so that it and the Gal4 DNA binding domain reading frame were aligned in the same frame with each other within pAS-1 vector (Clontech). This bait plasmid was transformed into Saccharomyces cerevisiae Y190 along with pACT2 prey plasmid whose HeLa cDNA (Clontech) had been sub-cloned. The screening for clones into which both plasmids were introduced was carried out according to the kit protocol. […]
For mapping of regions on the Skip taking part in the interaction with HDART, a series of deletion mutations where various regions on Skip (N-terminus region (codon 1-220), nuclear hormone binding region (NHR binding, codon 221-388), and tran-activation region (TA, codon 438-536) were deleted, and the interaction between HDART and mutated Skip was analyzed according to the yeast two-hybrid analysis using Gal4DBD-HDART as set forth in Example 2. The results of the analysis are shown in FIG. 5A. The sign “+” indicated at the right of FIG. 5A indicates the observation of the interaction by the filter lift analysis of β-galactosidase activity, and the number of “+” indicates the relative intensity of the interaction. […]

HDAC3 = HDAC3 (Homo sapiens, UniProt O15379); assay: Immunoprecipitation of GFP-HDART with Flag-HDAC in 293 cells; set-up: expressed in transfected cells; host or cells: 293 cells; conditions: co-transfected 293 cells; anti-FLAG immunoprecipitation
HDAC3, sequence (O15379 whole entry, species assumed): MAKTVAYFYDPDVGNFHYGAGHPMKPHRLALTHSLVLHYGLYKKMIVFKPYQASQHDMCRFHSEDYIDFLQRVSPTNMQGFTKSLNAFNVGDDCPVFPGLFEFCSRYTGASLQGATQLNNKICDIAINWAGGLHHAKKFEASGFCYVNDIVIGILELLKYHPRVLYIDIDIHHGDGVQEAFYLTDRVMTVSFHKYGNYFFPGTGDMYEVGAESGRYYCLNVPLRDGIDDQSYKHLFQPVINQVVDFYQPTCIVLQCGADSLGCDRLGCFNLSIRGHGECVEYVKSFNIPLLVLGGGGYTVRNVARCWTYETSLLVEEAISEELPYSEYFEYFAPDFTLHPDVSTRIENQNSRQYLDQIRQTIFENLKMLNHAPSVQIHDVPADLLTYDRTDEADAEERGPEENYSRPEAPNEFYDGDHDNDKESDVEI
Procedure: (§1) Flag-HDACs expression vectors capable of expressing different types of HDAC (1, 3, 4 or 6) and a GFP-HDART expression vector were, respectively, co-transfected with 293 cells in the same manner as in Example 2, and cell extracts were prepared 24 hours after the transfection. The respective cell extracts were incubated with an anti-Flag antibody, followed by immunoprecipitation. The resulting immunoprecipitate was isolated with SDS-PAGE and an isolated pattern was transferred to a membrane, followed by immunoblotting with use of an anti-Flag antibody or […]. For reference, in order to confirm the expression of GFP-HDART protein in the respective cells, individual samples prior to the immunoprecipitation were similarly developed with SDS-PAGE to conduct immunoblotting with use of an anti-GFP antibody. […] The kinds of HDAC's from the left side of the figure are as follows: lane 1, HDAC1; lane 3, HDAC3; lane 4, HDAC4; and lane 5, HDAC6. It will be noted that lane 2 is for the sample in which GFP-HDART alone was expressed.

HDAC4 = target: T2, HDAC4 (Homo sapiens, UniProt P56524); assay: as above; conditions: co-transfected 293 cells; anti-FLAG immunoprecipitation
T2 construct: expressed in transfected cells; host or cells: 293 cells
T2 sequence (P56524 whole entry, species assumed): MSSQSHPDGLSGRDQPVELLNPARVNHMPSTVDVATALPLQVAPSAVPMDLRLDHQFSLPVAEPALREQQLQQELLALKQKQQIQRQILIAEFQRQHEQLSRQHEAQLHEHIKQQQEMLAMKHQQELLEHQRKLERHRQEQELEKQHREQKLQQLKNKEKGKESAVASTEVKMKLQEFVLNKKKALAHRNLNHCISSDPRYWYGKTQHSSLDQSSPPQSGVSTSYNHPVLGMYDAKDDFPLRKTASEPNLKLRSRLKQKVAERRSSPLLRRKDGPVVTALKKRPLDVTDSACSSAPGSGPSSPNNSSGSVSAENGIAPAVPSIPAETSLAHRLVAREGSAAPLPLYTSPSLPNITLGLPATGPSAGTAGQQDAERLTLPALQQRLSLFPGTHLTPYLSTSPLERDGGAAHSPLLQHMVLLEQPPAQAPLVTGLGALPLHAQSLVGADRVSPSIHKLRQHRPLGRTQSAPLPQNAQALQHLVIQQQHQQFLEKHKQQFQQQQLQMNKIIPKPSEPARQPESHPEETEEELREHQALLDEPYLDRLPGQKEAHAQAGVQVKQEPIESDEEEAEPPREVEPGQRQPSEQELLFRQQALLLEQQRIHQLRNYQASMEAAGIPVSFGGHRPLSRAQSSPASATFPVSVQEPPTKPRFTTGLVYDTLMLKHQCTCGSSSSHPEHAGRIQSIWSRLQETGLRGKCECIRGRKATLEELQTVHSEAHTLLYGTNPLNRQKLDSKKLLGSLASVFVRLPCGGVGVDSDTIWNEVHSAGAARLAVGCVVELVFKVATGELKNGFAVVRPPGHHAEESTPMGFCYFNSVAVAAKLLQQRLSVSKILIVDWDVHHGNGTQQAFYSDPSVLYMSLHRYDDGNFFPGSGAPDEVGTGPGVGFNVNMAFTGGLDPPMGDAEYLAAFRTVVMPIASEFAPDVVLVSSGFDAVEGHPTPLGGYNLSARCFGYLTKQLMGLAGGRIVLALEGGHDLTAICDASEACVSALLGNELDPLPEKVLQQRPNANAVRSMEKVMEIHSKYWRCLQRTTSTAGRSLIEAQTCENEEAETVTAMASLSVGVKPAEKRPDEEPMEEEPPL
Procedure: as §1

B1: HDART: HDAC associated repressor TPR protein, 855 amino acids, SEQ ID NO: 2; transcription repressing factor, used as fusions or expressed from vector (protein, listed as Homo sapiens)
chain: MVVMARLSRPERPDLVFEEEDLPYEEEIMRNQFSVKCWLRYIEFKQGAPKPRLNQLYERALKLLPCSYKLWYRYLKARRAQVKHRCVTDPAYEDVNNCHERAFVFMHKMPRLWLDYCQFLMDQGRVTHTRRTFDRALRALPITQHSRIWPLYLRFLRSHPLPETAVRGYRRFLKLSPESAEEYIEYLKSSDRLDEAAQRLATVVNDERFVSKAGKSNYQLWHELCDLISQNPDKVQSLNVDAIIRGGLTRFTDQLGKLWCSLADYYIRSGHFEKARDVYEEAIRTVMTVRDFTQVFDSYAQFEESMIAAKMETASELGREEEDDVDLELRLARFEQLISRRPLLLNSVLLRQNPHHVHEWHKRVALHQGRPREIINTYTEAVQTVDPFKATGKPHTLWVAFAKFYEDNGQLDDARVILEKATKVNFKQVDDLASVWCQCGELELRHENYDEALRLLRKATALPARRAEYFDGSEPVQNRVYKSLKVWSMLADLEESLGTFQSTKAVYDRILDLRIATPQIVINYAMFLEEHKYFEESFKAYERGISLFKWPNVSDIWSTYLTKFIARYGGRKLERARDLFEQALDGCPPKYAKTLYLLYAQLEEEWGLARHAMAVYERATRAVEPAQQYDMFNIYIKRAAEIYGVTHTRGIYQKAIEVLSDEHAREMCLRFADMECKLGEIDRARAIYSFCSQICDPRTTGAFWQTWKDFEVRHGNEDTIKEMLRIRRSVQATYNTQVNFMASQMLKVSGSATGTVSDLAPGQSGMDDMKLLEQRAEQLAAEAERDQPLRAQSKILFVRSDASREELAELAQQVNPEEIQLGEDEDEDEMDLEPNEVRLEQQSVPAAVFGSLKED
interaction with Skip (Skip): able to directly interact with Skip
interaction with HDAC3 (HDAC3): exhibits interaction
interaction with HDAC4 (HDAC4): exhibits interaction
